Measured values reported in patent US20110135636A1 (SYMPHOGEN A S, published 2011).

Tests used:
[1] = target: T1, recombinant human EGFR extracellular domain with 6xHis (human, UniProt P00533 25-645); assay: SPR competition, competitor Erbitux
T1 construct: In-house produced; also called 6xHis EGFR ECD; soluble human EGFR ECD; not shown: 6xHis tag
Method: (§1) SPR analysis was performed on a Biacore 3000 machine containing four flow cells. A CM5 Biacore chip was conjugated with 10,000 Resonance units (Ru) polyclonal anti-His antibody to flow cells 1-4 according to the manufacturer's instructions. […] Immediately after antigen injection the maximal binding of the Anti-EGFR mAb without competition was established in each flow cell during a reference run. Briefly 5 μl antibody at a concentration of 40 μg/ml was injected over all flow cells with captured EGFR followed by stripping of the antibody/antigen complex with a low pH acid wash (10 sec. contact time with 10 mM Glycine-HCl, pH2). After the determination of Anti-EGFR antibody maximal binding to each flow cell, a competition run was performed during the same Biacore cycle. Flow cells were first saturated with EGFR ECD antigen followed by injection of different reference antibodies or Anti-EGFR antibodies into separate flow cells using the same antigen saturating conditions as outlined above. This step was immediately followed by a second injection of Anti-EGFR antibody over the flow cell saturated with EGFR antigen and competition antibody to minimize the dissociation of either antigen or blocking antibody. Then the antibody/antigen complexes were stripped off with a low pH acid wash (10 sec. contact time with 10 mM Glycine-HCl, pH 2) and the whole cycle beginning with the reference run was repeated with a new Anti-EGFR antibody. The degree of inhibition of tested Anti-EGFR antibodies were determined by comparing the Ru max value of the individual Anti-EGFR antibody before and after competition by introduction of report points recorded two seconds before and after injection of each sample.

[2] = target: T1, recombinant human EGFR extracellular …; assay: SPR competition, competitor Vectibix
Method: as §1

[3] = target: T1, recombinant human EGFR extracellular …; assay: SPR competition, competitor Ab-10
Method: as §1

[4] = target: T1, recombinant human EGFR extracellular …; assay: SPR competition, competitor 1257
Method: as §1

[5] = target: T1, recombinant human EGFR extracellular …; assay: SPR competition, competitor Ab-3
Method: as §1

[6] = target: T1, recombinant human EGFR extracellular …; assay: SPR competition, competitor 1277
Method: as §1

[7] = target: T1, recombinant human EGFR extracellular …; assay: SPR competition, competitor 1260
Method: as §1

[8] = target: T1, recombinant human EGFR extracellular …; assay: SPR competition, competitor 1030corr
Method: as §1

[9] = target: T1, recombinant human EGFR extracellular …; assay: SPR competition, competitor 1261
Method: as §1

[10] = target: T1, recombinant human EGFR extracellular …; assay: SPR competition, competitor 1024
Method: as §1

[11] = target: T1, recombinant human EGFR extracellular …; assay: SPR competition, competitor 1254
Method: as §1

[12] = target: T1, recombinant human EGFR extracellular …; assay: SPR competition, competitor ICR10
Method: as §1

[13] = target: T1, recombinant human EGFR extracellular …; assay: SPR competition, competitor 1347
Method: as §1

[14] = target: T1, recombinant human EGFR extracellular …; assay: SPR competition, competitor 992 corr
Method: as §1

[15] = target: T1, recombinant human EGFR extracellular …; assay: SPR competition, competitor Ab-1
Method: as §1

[16] = target: T1, recombinant human EGFR extracellular …; assay: SPR competition, competitor Vectibix; remark: listed apart in the source
Method: as §1

[17] = target: T1, recombinant human EGFR extracellular …; assay: SPR competition, competitor 1320
Method: as §1

[18] = target: T1, recombinant human EGFR extracellular …; assay: SPR competition, competitor 1284
Method: as §1

[19] = target: T1, recombinant human EGFR extracellular …; assay: SPR competition, competitor 1344
Method: as §1

[20] = target: T1, recombinant human EGFR extracellular …; assay: SPR competition, competitor Erbitux; remark: listed apart in the source
Method: as §1

[21] = target: T1, recombinant human EGFR extracellular …; assay: SPR competition, competitor Ab-5
Method: as §1

[22] = target: T1, recombinant human EGFR extracellular …; assay: SPR competition, competitor Ab-11
Method: as §1

[23] = target: T1, recombinant human EGFR extracellular …; assay: SPR competition, competitor 1208
Method: as §1

| % inhibition [1] | % inhibition [2] | % inhibition [3] | % inhibition [4] | % inhibition [5] | % inhibition [6] | % inhibition [7] | % inhibition [8] | % inhibition [9] | % inhibition [10] | % inhibition [11] | % inhibition [12] | % inhibition [13] | % inhibition [14] | % inhibition [15] | % inhibition [16] | % inhibition [17] | % inhibition [18] | % inhibition [19] | % inhibition [20] | Binder | also measured |
| --- | --- | --- | --- | --- | --- | --- | --- | --- | --- | --- | --- | --- | --- | --- | --- | --- | --- | --- | --- | --- | --- |
| 0% | -2% | 1% | 90% | 85% | 11% | 68% | 4% | 103% | 17% | 8% | 22% | 21% | 16% | -1% | 15% | 15% | 16% | 80% | 0% | antibody 1257 (antibody, human IgG1, kappa, V domains shown, Chimeric IgG1 kappa) VH: EVQLQQSGPELVKPGASVKIPCKTSGYTFTDYNMAWVKQSHGKSLEWIGDIIPNNGGAIYNQKFKGKATLTVDKSSSTASMELRSLTSEDTAVYFCARKNIYYRYDGAGALDYWGQGTSVTVSS VL: QIVLTQSPAIMSASPGEKVTMTCSASSSVSYIYWYQQKPGSSPRLLIYDASNLASGVPVRFSGSGSGTSYSLTISRMEAEDAATYYCQQWSSYPITFGSGTKLEIKR | % inhibition [21]: -5%; % inhibition [22]: 100%; % inhibition [23]: 17% |
| 104% | 102% | -5% | 22% | 0% | -1% | 35% | 3% | -27% | 96% | 5% | -3% | 2% | -58% | 6% | 82% | 86% | -2% | 1% | 104% | antibody 1024 (antibody, human IgG1, kappa, V domains shown, Chimeric IgG1 kappa) VH: QVQLQQPGAELVEPGGSVKLSCKASGYTFTSHWMHWVKQRPGQGLEWIGEINPSSGRNNYNEKFKSKATLTVDKSSSTAYMQFSSLTSEDSAVYYCVRYYGYDEAMDYWGQGTSVTVSS VL: DIVMTQAAFSNPVTLGTSASISCRSSKSLLHSNGITYLYWYLQKPGQSPQLLIYQMSNLASGVPDRFSSSGSGTDFTLRISRVEAEDVGVYYCAQNLELPYTFGGGTKLEIKR | % inhibition [21]: 0%; % inhibition [22]: -13%; % inhibition [23]: -7% |
| -1% | 16% | 84% | 5% | 6% | 103% | 16% | 89% | 8% | -1% | 107% | 54% | 6% | -3% | 98% | 17% | 4% | 32% | 24% | -1% | antibody 1030 (antibody, human IgG1, kappa, V domains shown, Chimeric IgG1 kappa) VH: EVQLVESGGGLVKPGGSLKLSCAASGFTFSSYALSWVRQTPERRLEWVASISGVGSTYFPDSVKGRFTMSRDNARNILYLQMSSLRSEDTAMYYCARGSDGYFYAMDYWGQGTSVTVSS VL: DIVLTQSPASLAVSLGQRATISCRASKSVSTSGYSFMHWYQLKPGQPPKLLIYLASNLESGVPARFSGSGSGTDFTLNIHPVEEEDAATYYCQHSREFPLTFGGGTKLEIKR | % inhibition [21]: 104%; % inhibition [22]: -5%; % inhibition [23]: 112% |
| 90% | 106% | -4% | 16% | 7% | 110% | -10% | -18% | -13% | -55% | 128% | -4% | 7% | 96% | 99% | 125% | -38% | 6% | 9% | 90% | antibody 992 (antibody, human IgG1, kappa, V domains shown, Chimeric mouse/human IgG1 kappa; the VL entry includes the human kappa constant region) VH: EVQLQQPGSELVRPGASVKLSCKASGYTFTSYWMHWVKQRPGQGLEWIGNIYPGSRSTNYDEKFKSKATLTVDTSSSTAYMQLSSLTSEDSAVYYCTRNGDYYVSSGDAMDYWGQGTSVTVSS VL: DIQMTQTTSSLSASLGDRVTISCRTSQDIGNYLNWYQQKPDGTVKLLIYYTSRLHSGVPSRFSGSGSGTDFSLTINNVEQEDVATYFCQHYNTVPPTFGGGTKLEIKR | % inhibition [21]: 1%; % inhibition [22]: -3%; % inhibition [23]: 109% |
| 18% | 29% | 32% | 9% | 5% | 40% | 4% | 27% | 13% | 3% | 33% | 5% | 4% | 100% | 37% | 25% | 30% | 4% | 7% | 18% | antibody 1208 (antibody, human IgG1, kappa, V domains shown, Chimeric IgG1 kappa; also called clone 1208) VH: EVQLVESGGGLVKPGGSLKLSCAASGFAFSSYDMSWVRQTPEKRLEWVAYIGSGDDNTHYPDSVKGRFTISRHNAKNTLYLQMSSLKSEDTAMYYCARQKYGNYGDTMDYWGQGTSVTVSS VL: DVVMTQTPLSLPVSLGDQASISCRSSQSLVHSNGNTYLHWYLQKPGQSPKLLIYKVSNRFSGVPDRFSGSGSGTDFTLKISRVEAEDLGVYFCSQSTHVPTFGGGTKLEIKR | % inhibition [21]: 66%; % inhibition [22]: 4%; % inhibition [23]: 78% |
